We go through 18 variants from the RNAGym collection of RNA variant scans (doi:10.1021/acssynbio.7b00057).

B1: Pistol ribozyme (parent)
chain: GGGUCGUUGUUCCAUAAUCGCGUGGAUAUGGCACGCAAGUUUCUACCGGGCACCGUAAAUGUCCGACUGGAGCCGUUCGGGCGGCUAUAAACAGACCUCAGGCCCGAAGCGUGGCGGCACCUGCCGCCGGUGGUAAAAAAGAUCGGAAGAGCACACGUCU

Variants of B1 are the subject of this data set. Nature of the data set: aptazyme ON/OFF ratio, guanine; higher = stronger switching; co-transcriptional cleavage with and without guanine.
Take GGGUCGCUAUACAAUAAUCGCGUGGAUAUGGCACGCAAGUUUCUACCGGGCACCGUAAAUGUCCGACUGGAGCCGUUCGGGCGGCUAUAAACAGACCUCAGGCCCGAAGCGUGGCGGCACCUGCCGCCGGUGGUAAAAAAGAUCGGAAGAGCACACGUCU [U7C G9A U11A C13A]: the “aptazyme ON/OFF ratio” value amounted to 1.21.

Turning to GGGUCGCUAUACUAUAAUCGCGUGGAUAUGGCACGCAAGUUUCUACCGGGCACCGUAAAUGUCCGACUGGAGCCGUUCGGGCGGCUAUAAACAGACCUCAGGCCCGAAGCGUGGCGGCACCUGCCGCCGGUGGUAAAAAAGAUCGGAAGAGCACACGUCU [U7C G9A U11A C13U], the “aptazyme ON/OFF ratio” value amounted to 1.13.

For GGGUCGCUAUCAUAUAAUCGCGUGGAUAUGGCACGCAAGUUUCUACCGGGCACCGUAAAUGUCCGACUGGAGCCGUUCGGGCGGCUAUAAACAGACCUCAGGCCCGAAGCGUGGCGGCACCUGCCGCCGGUGGUAAAAAAGAUCGGAAGAGCACACGUCU [U7C G9A U11C C12A C13U], the “aptazyme ON/OFF ratio” value came out at 1.15. For the variant GGGUCGCUAUCAAAUAAUCGCGUGGAUAUGGCACGCAAGUUUCUACCGGGCACCGUAAAUGUCCGACUGGAGCCGUUCGGGCGGCUAUAAACAGACCUCAGGCCCGAAGCGUGGCGGCACCUGCCGCCGGUGGUAAAAAAGAUCGGAAGAGCACACGUCU [U7C G9A U11C C12A C13A], the “aptazyme ON/OFF ratio” value worked out at 1.16. As for GGGUCGCUAUCAGAUAAUCGCGUGGAUAUGGCACGCAAGUUUCUACCGGGCACCGUAAAUGUCCGACUGGAGCCGUUCGGGCGGCUAUAAACAGACCUCAGGCCCGAAGCGUGGCGGCACCUGCCGCCGGUGGUAAAAAAGAUCGGAAGAGCACACGUCU [U7C G9A U11C C12A C13G], the “aptazyme ON/OFF ratio” value stood at 1.12.

For GGGUCGCUAUCACAUAAUCGCGUGGAUAUGGCACGCAAGUUUCUACCGGGCACCGUAAAUGUCCGACUGGAGCCGUUCGGGCGGCUAUAAACAGACCUCAGGCCCGAAGCGUGGCGGCACCUGCCGCCGGUGGUAAAAAAGAUCGGAAGAGCACACGUCU [U7C G9A U11C C12A], the “aptazyme ON/OFF ratio” value worked out at 1.2.

In the case of GGGUCGCUAUCUCAUAAUCGCGUGGAUAUGGCACGCAAGUUUCUACCGGGCACCGUAAAUGUCCGACUGGAGCCGUUCGGGCGGCUAUAAACAGACCUCAGGCCCGAAGCGUGGCGGCACCUGCCGCCGGUGGUAAAAAAGAUCGGAAGAGCACACGUCU [U7C G9A U11C C12U], the “aptazyme ON/OFF ratio” value turned out to be 1.17. As to GGGUCGCUAUCGCAUAAUCGCGUGGAUAUGGCACGCAAGUUUCUACCGGGCACCGUAAAUGUCCGACUGGAGCCGUUCGGGCGGCUAUAAACAGACCUCAGGCCCGAAGCGUGGCGGCACCUGCCGCCGGUGGUAAAAAAGAUCGGAAGAGCACACGUCU [U7C G9A U11C C12G], the “aptazyme ON/OFF ratio” value turned out to be 1.22. In the case of GGGUCGCUAUGACAUAAUCGCGUGGAUAUGGCACGCAAGUUUCUACCGGGCACCGUAAAUGUCCGACUGGAGCCGUUCGGGCGGCUAUAAACAGACCUCAGGCCCGAAGCGUGGCGGCACCUGCCGCCGGUGGUAAAAAAGAUCGGAAGAGCACACGUCU [U7C G9A U11G C12A], the “aptazyme ON/OFF ratio” value is 1.08. Turning to GGGUCGCUAUGGCAUAAUCGCGUGGAUAUGGCACGCAAGUUUCUACCGGGCACCGUAAAUGUCCGACUGGAGCCGUUCGGGCGGCUAUAAACAGACCUCAGGCCCGAAGCGUGGCGGCACCUGCCGCCGGUGGUAAAAAAGAUCGGAAGAGCACACGUCU [U7C G9A U11G C12G], the “aptazyme ON/OFF ratio” value was 1.37. In the case of GGGUCGCUAUGUCAUAAUCGCGUGGAUAUGGCACGCAAGUUUCUACCGGGCACCGUAAAUGUCCGACUGGAGCCGUUCGGGCGGCUAUAAACAGACCUCAGGCCCGAAGCGUGGCGGCACCUGCCGCCGGUGGUAAAAAAGAUCGGAAGAGCACACGUCU [U7C G9A U11G C12U], the “aptazyme ON/OFF ratio” value worked out at 1.27. As to GGGUCGCUAUGUAAUAAUCGCGUGGAUAUGGCACGCAAGUUUCUACCGGGCACCGUAAAUGUCCGACUGGAGCCGUUCGGGCGGCUAUAAACAGACCUCAGGCCCGAAGCGUGGCGGCACCUGCCGCCGGUGGUAAAAAAGAUCGGAAGAGCACACGUCU [U7C G9A U11G C12U C13A], the “aptazyme ON/OFF ratio” value was found to be 1.35.

Consider GGGUCGCUAUGGAAUAAUCGCGUGGAUAUGGCACGCAAGUUUCUACCGGGCACCGUAAAUGUCCGACUGGAGCCGUUCGGGCGGCUAUAAACAGACCUCAGGCCCGAAGCGUGGCGGCACCUGCCGCCGGUGGUAAAAAAGAUCGGAAGAGCACACGUCU [U7C G9A U11G C12G C13A], for which the “aptazyme ON/OFF ratio” value stood at 1.19. Turning to GGGUCGCUAUGGGAUAAUCGCGUGGAUAUGGCACGCAAGUUUCUACCGGGCACCGUAAAUGUCCGACUGGAGCCGUUCGGGCGGCUAUAAACAGACCUCAGGCCCGAAGCGUGGCGGCACCUGCCGCCGGUGGUAAAAAAGAUCGGAAGAGCACACGUCU [U7C G9A U11G C12G C13G], the “aptazyme ON/OFF ratio” value was found to be 1.21.

GGGUCGCUAUGGUAUAAUCGCGUGGAUAUGGCACGCAAGUUUCUACCGGGCACCGUAAAUGUCCGACUGGAGCCGUUCGGGCGGCUAUAAACAGACCUCAGGCCCGAAGCGUGGCGGCACCUGCCGCCGGUGGUAAAAAAGAUCGGAAGAGCACACGUCU [U7C G9A U11G C12G C13U]: the “aptazyme ON/OFF ratio” value is 1.09. In the case of GGGUCGCUAUCUUAUAAUCGCGUGGAUAUGGCACGCAAGUUUCUACCGGGCACCGUAAAUGUCCGACUGGAGCCGUUCGGGCGGCUAUAAACAGACCUCAGGCCCGAAGCGUGGCGGCACCUGCCGCCGGUGGUAAAAAAGAUCGGAAGAGCACACGUCU [U7C G9A U11C C12U C13U], the “aptazyme ON/OFF ratio” value is 1.11. As for GGGUCGCUAUCUAAUAAUCGCGUGGAUAUGGCACGCAAGUUUCUACCGGGCACCGUAAAUGUCCGACUGGAGCCGUUCGGGCGGCUAUAAACAGACCUCAGGCCCGAAGCGUGGCGGCACCUGCCGCCGGUGGUAAAAAAGAUCGGAAGAGCACACGUCU [U7C G9A U11C C12U C13A], the figure is 1.17; as for GGGUCGCUAUCUGAUAAUCGCGUGGAUAUGGCACGCAAGUUUCUACCGGGCACCGUAAAUGUCCGACUGGAGCCGUUCGGGCGGCUAUAAACAGACCUCAGGCCCGAAGCGUGGCGGCACCUGCCGCCGGUGGUAAAAAAGAUCGGAAGAGCACACGUCU [U7C G9A U11C C12U C13G], 1.02.
